For assay [1], the target named is mouse AXL extracellular domain (Sino cat. 51026-M08H) (mouse) (UniProt Q00993). Briefly: ELISA on coated AXL ECD (100 ng/well).
For assay [2], the target named is recombinant human AXL extracellular domain, C-terminally His8-tagged (rhAXL-ECD) (human) (UniProt P30530). Description: ELISA on coated AXL ECD (100 ng/well). In general terms: In an ELISA, binding on a coated surface is turned into a signal by an enzyme label.
Assay [3] addresses cyAXL-ECD displayed on yeast. Description: yeast surface display ELISA, non-denatured yeast, goat anti-human F(ab')2-HRP.
Assay [4] deals with huMER-ECD displayed on yeast (human) (UniProt Q12866). The description is as above.
Sequence of huMER-ECD displayed on yeast (human) (Q12866 21-505): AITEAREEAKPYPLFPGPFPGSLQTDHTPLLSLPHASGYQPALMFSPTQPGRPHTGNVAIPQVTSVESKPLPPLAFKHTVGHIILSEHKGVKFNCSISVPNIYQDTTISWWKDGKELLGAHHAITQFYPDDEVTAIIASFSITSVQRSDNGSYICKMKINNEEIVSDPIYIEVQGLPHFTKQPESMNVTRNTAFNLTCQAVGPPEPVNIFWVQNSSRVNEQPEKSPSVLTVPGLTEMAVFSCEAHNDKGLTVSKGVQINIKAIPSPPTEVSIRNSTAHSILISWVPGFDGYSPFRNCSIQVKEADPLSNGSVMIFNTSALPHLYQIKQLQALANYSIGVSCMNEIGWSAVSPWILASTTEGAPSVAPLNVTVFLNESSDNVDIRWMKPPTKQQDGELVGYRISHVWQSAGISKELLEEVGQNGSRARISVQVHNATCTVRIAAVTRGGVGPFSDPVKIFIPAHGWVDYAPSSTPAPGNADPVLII
Assay [5] addresses huAXL-ECD displayed on yeast (human) (UniProt P30530). The description is as above.
Assay [6] addresses huTyro3-ECD displayed on yeast (human) (UniProt Q06418). The description is as above.

Sequence of mouse AXL extracellular domain (Sino cat. 51026-M08H) (mouse) (Q00993 19-445, stated change not applied): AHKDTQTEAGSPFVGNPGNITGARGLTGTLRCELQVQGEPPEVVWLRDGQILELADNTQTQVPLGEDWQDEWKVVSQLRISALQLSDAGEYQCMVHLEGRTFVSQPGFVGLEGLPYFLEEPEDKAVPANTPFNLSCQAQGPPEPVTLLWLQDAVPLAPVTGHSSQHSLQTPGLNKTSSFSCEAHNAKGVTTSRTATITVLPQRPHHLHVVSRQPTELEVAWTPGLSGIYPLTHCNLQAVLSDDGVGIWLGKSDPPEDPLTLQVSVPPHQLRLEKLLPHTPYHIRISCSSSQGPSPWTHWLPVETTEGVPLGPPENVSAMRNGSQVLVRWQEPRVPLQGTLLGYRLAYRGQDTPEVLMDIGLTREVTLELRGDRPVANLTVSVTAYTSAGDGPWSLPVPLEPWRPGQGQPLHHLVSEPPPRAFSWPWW
Sequence of huAXL-ECD displayed on yeast (human) (P30530 26-449, form in doubt): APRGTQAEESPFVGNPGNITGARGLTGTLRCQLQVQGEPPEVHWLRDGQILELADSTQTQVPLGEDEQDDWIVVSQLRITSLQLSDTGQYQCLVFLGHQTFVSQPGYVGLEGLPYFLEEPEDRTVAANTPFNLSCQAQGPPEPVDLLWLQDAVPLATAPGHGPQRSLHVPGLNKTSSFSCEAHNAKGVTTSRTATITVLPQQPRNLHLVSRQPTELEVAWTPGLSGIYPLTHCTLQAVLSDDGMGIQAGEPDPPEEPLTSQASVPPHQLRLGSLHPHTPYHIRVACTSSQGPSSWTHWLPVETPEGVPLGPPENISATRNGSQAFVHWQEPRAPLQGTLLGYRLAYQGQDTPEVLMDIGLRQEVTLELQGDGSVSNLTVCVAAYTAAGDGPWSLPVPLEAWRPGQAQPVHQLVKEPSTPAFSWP
Sequence of huTyro3-ECD displayed on yeast (human) (Q06418 41-429): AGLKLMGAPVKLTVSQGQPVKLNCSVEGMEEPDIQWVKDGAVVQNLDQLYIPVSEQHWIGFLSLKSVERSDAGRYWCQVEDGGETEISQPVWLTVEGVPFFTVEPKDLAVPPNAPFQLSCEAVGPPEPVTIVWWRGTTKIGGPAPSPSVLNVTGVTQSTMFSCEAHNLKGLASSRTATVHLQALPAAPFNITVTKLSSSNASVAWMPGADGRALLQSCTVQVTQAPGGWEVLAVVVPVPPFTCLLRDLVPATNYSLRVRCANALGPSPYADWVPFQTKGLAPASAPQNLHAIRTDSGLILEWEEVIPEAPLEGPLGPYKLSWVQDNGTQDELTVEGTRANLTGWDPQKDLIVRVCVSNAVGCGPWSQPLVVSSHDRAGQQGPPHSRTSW
Sequence of recombinant human AXL extracellular domain, C-terminally His8-tagged (rhAXL-ECD) (human) (P30530 other isoform, or with tags, fused parts or gaps limits assumed): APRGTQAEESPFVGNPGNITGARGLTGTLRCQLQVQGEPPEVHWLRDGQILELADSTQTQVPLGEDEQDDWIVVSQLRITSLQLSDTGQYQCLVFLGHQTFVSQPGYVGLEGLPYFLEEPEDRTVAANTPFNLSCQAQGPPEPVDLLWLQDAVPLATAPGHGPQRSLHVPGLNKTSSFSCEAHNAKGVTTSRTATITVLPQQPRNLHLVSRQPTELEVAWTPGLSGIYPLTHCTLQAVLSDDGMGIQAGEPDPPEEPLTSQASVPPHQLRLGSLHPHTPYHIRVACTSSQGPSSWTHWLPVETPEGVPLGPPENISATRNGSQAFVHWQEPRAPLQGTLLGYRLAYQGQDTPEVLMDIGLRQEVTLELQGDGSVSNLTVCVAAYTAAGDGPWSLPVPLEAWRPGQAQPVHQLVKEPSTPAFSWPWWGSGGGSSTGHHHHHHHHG

As a reminder, the EC50 is the concentration at which the effect is half-maximal. As for “MAB8541 (R&D Systems), commercial anti-mouse AXL mAb, clone 175128, rat IgG2A (antibody)”, the EC50 in assay [1] turned out to be 1 nM; in assay [2], 61 nM.

Consider hFC-anti-RSV (antibody), for which the yeast ELISA signal normalized to myc expression level in assay [3] was -0.004; in assay [4] it was -0.001; in assay [5], 0.087; in assay [6] it was 0.059.

The values are drawn from patent US20240076389A1.
